Data: PMC12014907

Target: STAT3^136-705, P40763
Assay: thermal shift assay
Conditions: chain shown with the change; 25 μM phosphopeptides; parent: est. 54; read off a plot

Chain of STAT3^136-705, P40763 (P40763 136-705): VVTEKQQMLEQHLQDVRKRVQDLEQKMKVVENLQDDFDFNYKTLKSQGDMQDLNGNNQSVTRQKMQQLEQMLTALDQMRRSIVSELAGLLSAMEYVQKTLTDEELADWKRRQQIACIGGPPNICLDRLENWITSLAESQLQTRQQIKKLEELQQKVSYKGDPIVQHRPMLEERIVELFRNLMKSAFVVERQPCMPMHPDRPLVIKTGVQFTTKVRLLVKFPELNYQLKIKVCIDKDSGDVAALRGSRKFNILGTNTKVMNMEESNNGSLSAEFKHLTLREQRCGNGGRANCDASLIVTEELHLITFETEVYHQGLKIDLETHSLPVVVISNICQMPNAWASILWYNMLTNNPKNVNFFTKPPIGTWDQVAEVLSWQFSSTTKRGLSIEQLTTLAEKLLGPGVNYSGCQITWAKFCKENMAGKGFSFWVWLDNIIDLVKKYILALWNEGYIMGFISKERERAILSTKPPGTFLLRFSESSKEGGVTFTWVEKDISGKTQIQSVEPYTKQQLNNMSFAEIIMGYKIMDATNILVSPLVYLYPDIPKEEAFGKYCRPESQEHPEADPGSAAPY

**Q.** SGYIHQVPSV [gp130 phosphopeptide R168I] was tested. Which other: Tm of STAT3 with bound peptide (thermal shift) did it give?
**A.** 55 °C
